The record followed here is patent publication EP4803151A2 (Lepu Biopharma Co., Ltd., dated 2026).

Numbering of substitutions follows the chain as printed.

T1: human full length DLL1 expressed on CHO-K1 cells (human, UniProt O00548 18-723)
T1 construct: whole, on cells; also called CHO-K1-hDLL1
T1 sequence (looked up): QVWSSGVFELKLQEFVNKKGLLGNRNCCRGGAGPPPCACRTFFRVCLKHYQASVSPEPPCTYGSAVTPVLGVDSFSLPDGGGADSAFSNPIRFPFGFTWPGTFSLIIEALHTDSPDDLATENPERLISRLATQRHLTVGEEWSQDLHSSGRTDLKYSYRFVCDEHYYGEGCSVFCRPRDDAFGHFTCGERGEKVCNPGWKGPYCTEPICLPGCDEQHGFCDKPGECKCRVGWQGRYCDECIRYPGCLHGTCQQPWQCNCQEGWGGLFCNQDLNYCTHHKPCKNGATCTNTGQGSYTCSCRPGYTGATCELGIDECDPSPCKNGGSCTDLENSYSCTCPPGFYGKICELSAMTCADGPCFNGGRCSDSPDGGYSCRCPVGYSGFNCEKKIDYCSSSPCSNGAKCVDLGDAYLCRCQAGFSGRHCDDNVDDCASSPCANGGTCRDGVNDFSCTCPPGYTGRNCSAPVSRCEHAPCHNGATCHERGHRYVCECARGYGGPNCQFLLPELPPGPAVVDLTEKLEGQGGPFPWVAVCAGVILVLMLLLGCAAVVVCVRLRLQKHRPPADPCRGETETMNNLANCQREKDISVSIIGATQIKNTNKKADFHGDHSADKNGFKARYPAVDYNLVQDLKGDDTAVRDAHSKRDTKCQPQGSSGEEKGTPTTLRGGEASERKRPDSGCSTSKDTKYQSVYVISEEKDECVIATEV

T2: ECD of human DLL3 protein fused with his tag (Acro Bio, Cat. No. DL3-H52H4) (human, UniProt Q9NYJ7 27-492)
T2 construct: range 27-492; Bought protein; also called hDLL3-his; human DLL3-his protein; not shown: his tag
T2 sequence (looked up): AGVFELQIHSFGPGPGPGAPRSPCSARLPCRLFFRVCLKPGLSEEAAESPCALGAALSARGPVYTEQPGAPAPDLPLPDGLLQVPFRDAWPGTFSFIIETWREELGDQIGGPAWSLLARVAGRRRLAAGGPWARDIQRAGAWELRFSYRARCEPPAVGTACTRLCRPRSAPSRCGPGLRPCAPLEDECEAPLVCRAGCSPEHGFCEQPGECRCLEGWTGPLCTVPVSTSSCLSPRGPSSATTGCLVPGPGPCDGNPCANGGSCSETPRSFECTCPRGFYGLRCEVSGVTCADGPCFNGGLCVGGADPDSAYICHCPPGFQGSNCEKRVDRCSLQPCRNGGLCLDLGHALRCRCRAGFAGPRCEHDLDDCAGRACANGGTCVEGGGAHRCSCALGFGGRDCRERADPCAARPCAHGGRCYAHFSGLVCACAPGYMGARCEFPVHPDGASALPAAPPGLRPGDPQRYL

T3: ECD of human DLL3 over-expressed on HEK293 cells (human, UniProt Q9NYJ7 27-492)
T3 construct: extracellular domain; also called HEK293-hDLL3; human DLL3 expressed on HEK293 cells
T3 sequence (looked up): T2 sequence (looked up)

T4: human DLL3 endogenously expressed on SCLC tumor cell lines SHP77 and NCI-H82 (human, UniProt Q9NYJ7 27-618)
T4 construct: whole, on cells; also called human DLL3 expressed on tumor cells
T4 sequence (looked up): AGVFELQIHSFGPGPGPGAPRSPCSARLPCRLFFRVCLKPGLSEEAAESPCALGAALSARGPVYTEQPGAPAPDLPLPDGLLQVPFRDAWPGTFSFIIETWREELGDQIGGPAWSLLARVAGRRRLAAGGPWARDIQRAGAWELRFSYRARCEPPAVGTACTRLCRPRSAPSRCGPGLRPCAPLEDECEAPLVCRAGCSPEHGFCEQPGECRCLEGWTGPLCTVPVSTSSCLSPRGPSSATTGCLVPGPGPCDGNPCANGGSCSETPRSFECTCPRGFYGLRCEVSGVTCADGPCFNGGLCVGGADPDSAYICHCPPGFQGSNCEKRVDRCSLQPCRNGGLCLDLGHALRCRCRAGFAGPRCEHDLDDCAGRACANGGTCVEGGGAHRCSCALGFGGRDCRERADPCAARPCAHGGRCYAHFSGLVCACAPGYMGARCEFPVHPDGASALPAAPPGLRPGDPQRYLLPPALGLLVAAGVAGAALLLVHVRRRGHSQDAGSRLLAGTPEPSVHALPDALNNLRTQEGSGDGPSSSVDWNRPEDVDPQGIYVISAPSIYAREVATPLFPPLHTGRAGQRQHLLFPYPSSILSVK

B1: 310P3C5-z8 humanized antibody (antibody, human IgG1, kappa, V domains shown)
VH: QVQLVQSGAEVKKPGASVKVSCKASGYTFTDFYMNWVRQAPGQGLEWIGDANPNNGGTTHNPRFKGQATLTVDKSTSTAYMELRSLRSDDTAVYYCARGGLPGDFDYWGQGTTVTVSS
VL: DIQMTQSPSSVSASVGDRVTITCKASEDIYNRLAWYQQKPGKAPKLLISGVTSLETGVPSRFSGSGSGTDFTLTISSLQPEDFATYYCQQYWSFPWTFGGGTKVEIKR
notes: HU-VH1-4 with HU-VL1-2; human IgG1
B2: 310P3C5-z12 humanized antibody (antibody, human IgG1, kappa, V domains shown)
VH: B1 VH
VL: B1 VL with T69K
notes: HU-VH1-4 with HU-VL1-3; human IgG1
B3: 310P3C5-z15 humanized antibody (antibody, human IgG1, kappa, V domains shown)
VH: B1 VH with R38K, Q67R, T76A, D89E
VL: B1 VL with V11L, L73F, F83I
notes: human IgG1
B4: 310P3C5-z14 humanized antibody (antibody, human IgG1, kappa, V domains shown)
VH: B1 VH with R38K, Q67R, T76A, D89E
VL: B1 VL with S49Y
notes: HU-VH2 with HU-VL1-1; human IgG1
B5: 310P3C5-z4 humanized antibody (antibody, human IgG1, kappa, V domains shown)
VH: B1 VH
VL: B1 VL with S49Y
notes: HU-VH1-4 with HU-VL1-1; human IgG1
B6: 310P3C5-z15p10 PTM removed humanized antibody (antibody, V domains shown)
VH: B1 VH with R38K, N55A, Q67R, T76A, D89E
VL: DIQMTQSPSSLSASVGDRVTITCKASEDIYNRLAWYQQKPGKAPKLLISGVTSLETGVPSRFSGSGSGTDFTFTISSLQPEDIATYYCQQYWSFPWTFGGGTKVEIK
notes: variable regions fused to the constant region of human IgG1
B7: 310P3C5-z15p19 PTM removed humanized antibody (antibody, V domains shown)
VH: B1 VH with R38K, N55V, Q67R, T76A, D89E
VL: B6 VL
notes: as for B6
B8: 310P3C5-z15p18 PTM removed humanized antibody (antibody, V domains shown)
VH: B1 VH with R38K, N55R, Q67R, T76A, D89E
VL: B6 VL
notes: as for B6
B9: 310P3C5-z15p20 PTM removed humanized antibody (antibody, V domains shown)
VH: B1 VH with R38K, N55W, Q67R, T76A, D89E
VL: B6 VL
notes: as for B6
B10: 310P3C5-z15p12 PTM removed humanized antibody (antibody, V domains shown)
VH: B1 VH with R38K, N55F, Q67R, T76A, D89E
VL: B6 VL
notes: as for B6
B11: 310P3C5-z15p13 PTM removed humanized antibody (antibody, V domains shown)
VH: B1 VH with R38K, N55H, Q67R, T76A, D89E
VL: B6 VL
notes: as for B6
B12: 310P3C5-z15p21 PTM removed humanized antibody (antibody, V domains shown)
VH: B1 VH with R38K, N55Y, Q67R, T76A, D89E
VL: B6 VL
notes: as for B6

T5 sequence (Q9NR61 27-685): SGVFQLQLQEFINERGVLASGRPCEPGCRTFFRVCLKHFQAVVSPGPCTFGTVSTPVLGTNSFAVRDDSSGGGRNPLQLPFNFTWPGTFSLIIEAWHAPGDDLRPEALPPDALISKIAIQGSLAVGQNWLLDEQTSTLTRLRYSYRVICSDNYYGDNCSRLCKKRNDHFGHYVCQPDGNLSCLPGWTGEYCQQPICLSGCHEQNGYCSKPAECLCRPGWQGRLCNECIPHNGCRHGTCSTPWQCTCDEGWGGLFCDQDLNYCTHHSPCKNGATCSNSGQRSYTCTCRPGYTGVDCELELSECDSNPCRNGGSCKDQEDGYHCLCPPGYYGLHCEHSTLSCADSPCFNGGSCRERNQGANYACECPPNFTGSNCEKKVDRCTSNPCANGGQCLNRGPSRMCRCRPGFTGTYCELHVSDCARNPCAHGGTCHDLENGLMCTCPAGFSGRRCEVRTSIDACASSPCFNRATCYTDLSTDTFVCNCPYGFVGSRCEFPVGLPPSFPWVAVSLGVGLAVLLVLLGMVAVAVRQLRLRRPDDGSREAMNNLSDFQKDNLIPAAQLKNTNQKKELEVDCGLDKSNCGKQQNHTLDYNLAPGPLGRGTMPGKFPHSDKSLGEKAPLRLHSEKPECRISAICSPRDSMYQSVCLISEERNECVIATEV

One assay addresses T5, human full length DLL4 expressed on CHO-K1 cells (human, UniProt Q9NR61 27-685).
T5 construct: whole, on cells; also called CHO-K1-hDLL4
In words: flow cytometry on CHO-K1-hDLL4 cells.
As for B1, the binding result is listed as “no binding”.
In the case of B2, the binding result was “no binding”.
With B3, the binding result is “no binding”.
As to B4, the binding result is reported as “no binding”.
The same measure, in the same setting: the result for B5 reads “no binding”.

Another assay addresses T1, human full length DLL1 expressed on …. In words: flow cytometry on CHO-K1-hDLL1 cells.
For B1, the binding result is reported as “no binding”.
Regarding B2, the binding result was “no binding”.
For the molecule B3, the binding result was “no binding”.
In the case of B4, the binding result is listed as “no binding”.
As to B5, the binding result was “no binding”.

In another assay the target is T2, ECD of human DLL3 protein fused with …. In words: ELISA, hDLL3-his coated.
B1: the binding result is “binds”.
For the molecule B2, the binding result was “binds”.
B3: the binding result was “binds”.
For B4, the binding result is “binds”.
Still for that read-out and setting: the result for B5 reads “binds”.

The next assay addresses T3, ECD of human DLL3 over-expressed on …. In words: flow cytometry on HEK293-hDLL3 cells.
Turning to B6, the binding result was “binds”.
Take B1: the binding result is given as “binds”.
Consider B7, for which the binding result is reported as “binds”.
For the molecule B8, the binding result is on record as “binds”.
Turning to B2, the binding result was “binds”.
Same read-out and setting: the result for B9 reads “binds”; that for B10, “binds”.
Consider B3, for which the binding result is “binds”.
For B4, the binding result was “binds”.
As to B11, the binding result is reported as “binds”.
For B5, the binding result was “binds”.
For B12, the binding result is given as “binds”.

Another assay addresses T4, human DLL3 endogenously expressed on …. In words: flow cytometry on SHP77 cells.
Turning to B6, the binding result is on record as “binds”.
B7: the binding result was “binds”.
For the molecule B8, the binding result is recorded as “binds”.
On to B9, for which the binding result is reported as “binds”.
Same read-out and setting: under B10 stands “binds”; under B11, “binds”; under B12, “binds”.

A further assay shares this target. In words: flow cytometry on SHP77 and NCI-H82 cells.
For B1, the binding result is given as “binds”.
As for B2, the binding result was “binds”.
Regarding B3, the binding result is reported as “binds”.
Same read-out and setting: under B4 stands “binds”; under B5, “binds”.
